The text below walks through data of publication PMC11440508, “Dually Labeled Neurotensin NTS1R Ligands for Probing Radiochemical and Fluorescence-Based Binding Assays” (Journal of Medicinal Chemistry, 2024).

Assay [1] deals with T1, human neurotensin receptor type 1 (hNTS1R), endogenous in HT-29 colon carcinoma cells (human (endogenous in HT-29), UniProt P30989 1-418).
T1 construct: human neurotensin receptor type 1 (hNTS1R), endogenously expressed in HT-29 colon carcinoma cells; also called HT-29 cells; source: endogenous, intact HT-29 colon carcinoma cells
T1 sequence (P30989 whole entry): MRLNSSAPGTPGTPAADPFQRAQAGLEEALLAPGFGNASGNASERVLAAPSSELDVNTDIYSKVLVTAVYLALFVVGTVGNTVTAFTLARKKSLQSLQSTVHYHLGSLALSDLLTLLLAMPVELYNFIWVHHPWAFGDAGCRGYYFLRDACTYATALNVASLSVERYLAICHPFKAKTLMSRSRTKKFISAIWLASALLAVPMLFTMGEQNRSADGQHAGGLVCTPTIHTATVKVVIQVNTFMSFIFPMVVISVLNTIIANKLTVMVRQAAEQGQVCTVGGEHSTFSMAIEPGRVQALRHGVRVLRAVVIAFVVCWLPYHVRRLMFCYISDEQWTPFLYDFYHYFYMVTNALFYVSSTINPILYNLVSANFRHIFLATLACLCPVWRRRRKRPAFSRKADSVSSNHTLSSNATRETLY
The assay can be described thus: radioligand binding; competition with [^3H]UR-MK300 at intact hNTS1R-expressing HT-29 cells, 23 ± 1 °C; pIC50 converted to pKi (Cheng–Prusoff). The settings on record: one partner purified.

Assay [2] has as its target T2, human neurotensin receptor type 1 (hNTS1R), stably expressed in CHO cells (human, UniProt P30989 1-418).
T2 construct: human neurotensin receptor type 1 (hNTS1R), wild type, stably expressed in Chinese hamster ovary cells; also called CHO-hNTS1R cells; CHO-NTS1R cells; source: CHO cells stably expressing hNTS1R; intact adherent cells, intact suspended cells and membrane preparations
Nature of the assay: radioligand binding; saturation binding at intact adherent cells (CHO-hNTS1R or HT-29), DPBS1 with 1% BSA, 23 ± 1 °C; radioligand 1:1 diluted with its cold analogue. The settings on record: one partner purified.

Assay [3] concerns the target T1, human neurotensin receptor type 1 …. The assay is described as above. The note with it: one partner purified.
Assay [4] concerns the target T2, human neurotensin receptor type 1 …. Nature of the assay: radioligand binding; saturation binding at intact suspended CHO-hNTS1R cells, 96-well plates, filtration, DPBS1 with 1% BSA, 23 ± 1 °C. The settings on record: one partner purified.
The target is the same in assay [5]. The assay can be described thus: radioligand binding; association (1.3 nM [^3H]13, 1.1 nM [^3H]18; biphasic fit) and dissociation (started with 1 μM NT(8–13)) at intact adherent CHO-hNTS1R cells, DPBS1, 23 ± 1 °C; kon(fast) and Kd(kin) calculated. The note with it: one partner purified.
Assay [6] has the same target. The assay can be described thus: radioligand binding; association (1.8 nM [^3H]13, 1.2 nM [^3H]18; 96-well plates; biphasic fit) and dissociation (50 mL falcon tubes, started with 25 μM NT(8–13)) at intact suspended CHO-hNTS1R cells, DPBS1, 23 ± 1 °C; kon(fast) and Kd(kin) calculated. The settings on record: one partner purified.
Assay [7] shares this target. The assay can be described thus: radioligand binding; saturation binding at membranes of CHO-hNTS1R cells, DPBS1 with 50 μM GppNHp and 100 μg/mL saponin, 23 °C. The note with it: one partner purified.
Assay [8] has the same target. The assay can be described thus: radioligand binding; association (2.5 nM) and dissociation (12 nM preincubation, 30 min) at membranes of CHO-hNTS1R cells, DPBS1 with 50 μM GppNHp and 100 μg/mL saponin, 23 °C; kon and Kd(kin) calculated. The settings on record: one partner purified.
Assay [9] has the same target. Nature of the assay: cell-based or functional assay.
Assay [10] deals with T3, hNTS1R displayed on budded baculovirus particles (NTS1R-BBV) (human, UniProt P30989 1-418).
T3 construct: human neurotensin receptor type 1 (hNTS1R) from pcDNA3.1-hNTS1-NlucC, subcloned into pIMACE-CMVintP10; also called hNTS1R-displaying BBVs; hNTS1R-Nluc
T3 sequence (P30989 whole entry): as above
Nature of the assay: fluorescence polarisation; fluorescence anisotropy, equilibrium binding: fixed ligand (0.3 or 1 nM), increasing amounts of hNTS1R-displaying BBVs, signal at 10 min, 27 °C, DPBS2; unspecific binding with 1 μM SR142948. The settings on record: one partner purified.

The target in assay [11] is T2, human neurotensin receptor type 1 …. The assay can be described thus: flow cytometry on cells; equilibrium saturation binding at intact suspended CHO-hNTS1R or HT-29 cells, 96-well plates, DPBS1, 23 ± 1 °C, homogeneous; unspecific binding with 1 μM NT(8–13). The note with it: one partner purified.
Assay [12] deals with T1, human neurotensin receptor type 1 …. Described as above. The note with it: one partner purified.
Assay [13] addresses T2, human neurotensin receptor type 1 …. The assay can be described thus: flow cytometry on cells; association (1 nM ligand) and dissociation (10 nM preincubation, started with ca. 25 μM NT(8–13)) at intact suspended CHO-hNTS1R cells, 5 mL tubes, DPBS1, 23 ± 1 °C; kon and Kd(kin) calculated. The settings on record: one partner purified.
Assay [14] concerns the target T3, hNTS1R displayed on budded baculovirus …. The assay can be described thus: fluorescence polarisation; fluorescence anisotropy, association and dissociation (started with 1 μM SR142948) at hNTS1R-displaying BBVs, 27 °C, DPBS2; kon and Kd(kin) from a fit with koff constrained. The note with it: one partner purified.
Assay [15] has as its target T2, human neurotensin receptor type 1 …. The assay can be described thus: high-content imaging (HCI) of fluorescent ligand on cells; equilibrium saturation binding at intact adherent CHO-hNTS1R or HT-29 cells, DPBS1 with 0.1% BSA, 23 ± 1 °C, washing step before reading; unspecific binding with 1 μM NT(8–13). The settings on record: one partner purified.
The target of assay [16] is T1, human neurotensin receptor type 1 …. Described as above. The note with it: one partner purified.
Assay [17] has as its target T4, human neurotensin receptor type 2 (hNTS2R) in homogenates of HEK293T cells (human, UniProt O95665 1-410).
T4 construct: human neurotensin receptor type 2 (hNTS2R); also called HEK293T-hNTS2R cells; source: HEK293T, transiently transfected, homogenates
The assay can be described thus: radioligand binding; competition with [^3H]UR-MK300 at homogenates of HEK293T cells transiently transfected with hNTS2R; Tris buffer (50 mM Tris HCl, 1 mM EDTA, pH 7.4) with 0.1% BSA. The note with it: one partner purified.

Assay [18] deals with T2, human neurotensin receptor type 1 …. The assay can be described thus: high-content imaging (HCI) of fluorescent ligand on cells; association (2.5 nM ligand) and dissociation (started with 1 μM NT(8–13)) at intact adherent CHO-hNTS1R cells, DPBS1, 23 ± 1 °C; kon = (kobs – koff)/[FL], Kd(kin) = koff/kon. The settings on record: one partner purified.

Starred links: 1 amine or outer side, 2 acyl side, 3 side chain; linkers in the order of their positions; H or OH if unused. Non-standard residues stand in square brackets, D forms with d. No end group written: not given here. *: point of attachment. 5‑TAMRA = CN(C)c1ccc2c(-c3ccc(C(=O)*)cc3C(=O)[O-])c3ccc(N(C)C)cc3[o+]c2c1; Propanoyl(3-triazol-4-yl) = O=C(CCc1cn([*:1])nn1)[*:2]; Gly(piperidin-4-yl) = N[C@H](C(=O)O)C1CCNCC1; Pent4ynoyl = C#CCCC(=O)*; Pra = C#CC[C@H](N)C(=O)O

T2 sequence (P30989 whole entry): as above
T4 sequence (O95665 whole entry): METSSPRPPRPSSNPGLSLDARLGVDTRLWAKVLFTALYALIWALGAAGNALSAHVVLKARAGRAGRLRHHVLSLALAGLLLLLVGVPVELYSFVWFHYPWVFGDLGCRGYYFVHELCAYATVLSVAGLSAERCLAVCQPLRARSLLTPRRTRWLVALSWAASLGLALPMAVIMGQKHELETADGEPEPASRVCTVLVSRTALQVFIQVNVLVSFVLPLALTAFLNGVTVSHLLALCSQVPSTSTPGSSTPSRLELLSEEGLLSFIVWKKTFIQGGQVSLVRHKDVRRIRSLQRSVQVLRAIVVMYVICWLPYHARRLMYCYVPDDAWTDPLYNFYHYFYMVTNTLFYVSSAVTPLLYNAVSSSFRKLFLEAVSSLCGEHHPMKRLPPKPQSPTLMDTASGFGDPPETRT

B1: N^α-(Pent-4-ynoyl)-D-Lys-Pro-Arg-Arg-Pro-Tyr-Ile-Leu (8) (peptide)
peptide: Pent4ynoyl-[dK]PRRPYIL
notes: neurotensin NT(6–13) with D-Lys at position 6, printed in three-letter code; numbers count on: the mature neurotensin; also called peptide 8; source: synthetic peptide (SPPS, preparative HPLC)
In the case of B1, the Ki in assay [1] was 0.85 nM.

B2: [^3H]13, tritiated analogue of the 5-TAMRA-labeled peptide 13 (peptide)
chain: XPRRPYIL
modifications: as 13, with a [^3H]propionyl instead of the propionyl group at the N^ω-carbamoylated Arg8; N-terminal 5-TAMRA through a triazolylpropanoyl group; position 6 (X) = pipGly
Regarding B2, the Kd was 1.3 nM in [2]; 1.2 nM in assay [3]; 1.8 nM in assay [4]; 6.2 nM in [7]; 2.7 nM in assay [8]. For the same molecule, the koff in [5] was 0.000233 s⁻¹; in [6] it was 0.0006 s⁻¹; in assay [8], 0.00617 s⁻¹. Also, the kon in assay [8] was 2.17e+06 M⁻¹ s⁻¹.

B3: N^α-(Pent-4-ynoyl)-2-(piperidin-4-yl)-Gly-Pro-N^ω-[(4-aminobutyl)aminocarbonyl]Arg-Arg-Pro-β,β-dimethyl-D-Tyr-Ile-Leu (10b) (peptide)
chain: XPRRPYIL
modifications: N-terminal N^α-(pent-4-ynoyl); position 6 (X) = 2-(piperidin-4-yl)-Gly (pipGly); Arg8 = N^ω-[(4-aminobutyl)aminocarbonyl]Arg; position 11 = β,β-dimethyl-D-Tyr
In the case of B3, the Ki in assay [1] was 140 nM.

B4: [^3H]18, tritiated analogue of the Cy3B-labeled peptide 18 (peptide)
chain: XPRRPYIL
modifications: as 18, with a [^3H]propionyl instead of the propionyl group at the N^ω-carbamoylated Arg8; N-terminal Cy3B through a triazolylpropanoyl group; position 6 (X) = pipGly; position 11 = …
For the molecule B4, the Kd in assay [2] came out at 1.1 nM; in assay [3], 1.9 nM; in assay [4], 1.2 nM. For the same molecule, the results for the koff in assay [5] and in [6] were 0.000433 s⁻¹ and 0.0005 s⁻¹, respectively.

B5: 5-TAMRA-labeled, propionylated NT(6–13) derivative 15 (peptide)
peptide: {5‑TAMRA-Propanoyl(3-triazol-4-yl)}-[dK](propanoyl)PRRPYIL
notes: neurotensin NT(6–13) with D-Lys at position 6, printed in three-letter code; numbers count on: the mature neurotensin; also called peptide 15; source: synthetic peptide (from 8 by propionylation and click reaction, preparative HPLC)
In turn, B5 returned a Ki in assay [1] of 3 nM.

B6: 5-TAMRA-labeled, propionylated NT(6–13) derivative 16 (peptide)
chain: {4‑(N-propanoyl)aminobutanoyl}-X[Gly(piperidin-4-yl)]PRRPYIL
modifications: not fully specified (residue 1); printed as *N*^α^-[(4-(*N*-Propanoyl)aminobutanoyl)]-2-(1-(1-*N*-((1-carboxylato-2-(6-(dimethylamino)-3-(dimethyliminio)-3*H*-xanthen-9-yl)phen-5-yl)1-oxomethyl)aminoprop-3-yl-1*H*-1,2,3-triazol-4-yl)methyl)-Gly-2-(piperidin-4-yl)-Gly-Pro-Arg-Arg-Pro-Tyr-Ile-Leu
Take B6: the Ki in [1] is 0.77 nM.

B7: N^α-(Pent-4-ynoyl)-2-(piperidin-4-yl)-Gly-Pro-N^ω-[(4-aminobutyl)aminocarbonyl]Arg-Arg-Pro-β,β-dimethyl-L-Tyr-Ile-Leu (10a) (peptide)
chain: XPRRPYIL
modifications: N-terminal N^α-(pent-4-ynoyl); position 6 (X) = 2-(piperidin-4-yl)-Gly (pipGly); Arg8 = N^ω-[(4-aminobutyl)aminocarbonyl]Arg; position 11 = β,β-dimethyl-L-Tyr
In [1], B7 showed a Ki of 1.1 nM. Also, the “EC50 of NTS1R agonism, Fura-2 Ca^2+ assay at CHO-NTS1R cells” value (“EC50 of NTS1R agonism” for short) in [9] is 0.32 nM.
Regarding {4‑aminobutanoyl}-[Pra][Gly(piperidin-4-yl)]PRRPYIL [N^α-(4-Aminobutanoyl)-2-(prop-2-ynyl)-Gly-2-(piperidin-4-yl)-Gly-Pro-Arg-Arg-Pro-Tyr-Ile-Leu (9)], in assay [1], the Ki stood at 0.33 nM.

B8: N^α-(Pent-4-ynoyl)-Lys-Pro-Arg-Arg-Pro-Tyr-Ile-Leu (7) (peptide)
peptide: Pent4ynoyl-KPRRPYIL
notes: neurotensin NT(6–13), printed in three-letter code; numbers count on: the mature neurotensin; also called peptide 7; source: synthetic peptide (SPPS, preparative HPLC)
B8 had a Ki in assay [1] of 0.54 nM.

B9: 5-TAMRA-labeled, propionylated NT(6–13) derivative 14 (peptide)
peptide: {5‑TAMRA-Propanoyl(3-triazol-4-yl)}-K(propanoyl)PRRPYIL
notes: neurotensin NT(6–13), printed in three-letter code; numbers count on: the mature neurotensin; also called peptide 14; source: synthetic peptide (from 7 by propionylation and click reaction, preparative HPLC)
In turn, B9 returned a Ki in assay [1] of 1.5 nM.

B10: 5-TAMRA-labeled, propionylated NT(6–13) derivative 13 (UR-FE051) (peptide)
chain: XPRRPYIL
modifications: N-terminus: 5-TAMRA attached through a 3-(1H-1,2,3-triazol-4-yl)propanoyl group; position 6 (X) = 2-(piperidin-4-yl)-Gly (pipGly); Arg8 = N^ω-[(4-(N-propanoyl)aminobutyl)aminocarbonyl]Arg
In the case of B10, the results for the Ki in assay [1] and in [17] were 1.1 nM and 2.4 nM, respectively. Also, the Kd was 1.3 nM in [10]; 2.6 nM in assay [11]; 0.25 nM in assay [12]; 0.041 nM in [13]; 1 nM in assay [14]; 1.1 nM in assay [15]. The Kd stood at 4.7 nM in assay [16] and 2.8 nM in assay [18]. Further, the “EC50 of NTS1R agonism” value in [9] was found to be 0.05 nM. In addition, the koff is 0.000333 s⁻¹ in assay [13], 0.0102 s⁻¹ in assay [14] and 0.000733 s⁻¹ in assay [18]. Moreover, the kon was 8e+06 M⁻¹ s⁻¹ in assay [13], 1.67e+07 M⁻¹ s⁻¹ in assay [14] and 267000 M⁻¹ s⁻¹ in assay [18].

B11: N^α-(Pent-4-ynoyl)-2-(piperidin-4-yl)-Gly-Pro-N^ω-[(4-aminobutyl)aminocarbonyl]Arg-Arg-Pro-Tyr-Ile-Leu (6) (peptide)
chain: XPRRPYIL
modifications: N-terminal N^α-(pent-4-ynoyl); position 6 (X) = 2-(piperidin-4-yl)-Gly (pipGly); Arg8 = N^ω-[(4-aminobutyl)aminocarbonyl]Arg
In turn, B11 yielded a Ki in assay [1] of 0.64 nM. In assay [9], the “EC50 of NTS1R agonism” value worked out at 0.0065 nM.

Broadly, the Ki is the equilibrium dissociation constant of an inhibitor or competing ligand from its target. Higher therefore signals a looser hold on the target. For orientation: Kd means the concentration at which binding is half-saturated. For orientation: koff means a measure of how fast the partners let go of each other. A word on the kon: it is the second-order rate constant of association.
